From article PMC6411837
One block for each substance: values may come before it.

Experiments:
[1] = molecular target: ternary complex (TC) of WT eIF2, GDPNP and Met-tRNAi, P20459;P09064;P32481; test: TC dissociation kinetics, EMSA
[2] = test system: eIF2 with eIF2beta-E189R;eIF1 (WT);eIF1A (WT);40S ribosomal subunit (Saccharomyces cerevisiae (yeast);Saccharomyces cerevisiae (yeast);Saccharomyces cerevisiae? (yeast);Saccharomyces cerevisiae (strain YAS2488)); test: EMSA kinetics; details: aminoacylated with Met; 30 mM HEPES-KOH pH 7.4, 100 mM potassium acetate, 3 mM magnesium acetate, 2 mM DTT, 26 C; GDPNP; native gel shift
[3] = test system: eIF2 with eIF2beta-F217A/Q221A;eIF1 (WT);eIF1A (WT);40S ribosomal subunit (Saccharomyces cerevisiae (yeast);Saccharomyces cerevisiae (yeast);Saccharomyces cerevisiae? (yeast);Saccharomyces cerevisiae (strain YAS2488)); test: EMSA kinetics; details: aminoacylated with Met; 30 mM HEPES-KOH pH 7.4, 100 mM potassium acetate, 3 mM magnesium acetate, 2 mM DTT, 26 C; GDPNP; native gel shift
[4] = molecular target: 40S·eIF1·eIF1A·mRNA complex with WT eIF1, P32911;P38912; test: TC binding kinetics (kobs versus [40S], as in Figure 6A–C); details: three independent experiments
[5] = test system: eIF2 (WT), GDPNP-bound;eIF1-Q31A/F108A;eIF1A (WT);40S ribosomal subunit (Saccharomyces cerevisiae (yeast);Saccharomyces cerevisiae (yeast);Saccharomyces cerevisiae? (yeast);Saccharomyces cerevisiae (strain YAS2488)); test: EMSA kinetics; details: aminoacylated with Met, 30 mM HEPES-KOH pH 7.4, 100 mM potassium acetate, 3 mM magnesium acetate, 2 mM DTT, 26 C, native gel shift

koff ([1]; mRNA(UUG), n = 4 (WT n = 5)): 3.33e-05 s⁻¹
Substance: 40S·eIF1·eIF1A·mRNA complex with WT eIF1 (from UniProt P32911;P38912) eIF1:Q31E

Substance: Met-tRNAi on 40S with mRNA(UUG)
binding signal (fold decrease in koff vs WT eIF2) [2]: 2
binding signal (fold decrease in kon vs WT eIF2) [3]: 1.5

kon ([4]; mRNA(AUG)): 4.11 s⁻¹
kon ([4]; mRNA(UUG)): 2.76 s⁻¹
Substance: ternary complex (TC) of WT eIF2, GDPNP and Met-tRNAi (from UniProt P20459;P09064;P32481) eIF2β:S202A; eIF2β:K214A

koff ([1]; mRNA(AUG), n = 3 (WT n = 5)): 5e-05 s⁻¹
koff ([1]; mRNA(UUG), n = 3 (WT n = 5)): 7.5e-05 s⁻¹
Substance: 40S·eIF1·eIF1A·mRNA complex with WT eIF1 (from UniProt P32911;P38912) eIF1:F108D

Substance: Met-tRNAi on 40S with mRNA(AUG)
binding signal (fold decrease in kon vs WT eIF2) [3]: 1.5
binding signal (fold decrease in kon vs WT eIF1) [5]: 2
